{"source": "paper PMC4337669", "tested_on": "H-NS (Escherichia coli)", "experiment": "EMSA", "conditions": "40 mM HEPES-KOH pH 8.0, 100 mM K-glutamate, 0.022% NP-40, 100 µg/ml BSA, 10% glycerol, 2 or 8 mM Mg aspartate, 20 °C 20 min; 3% native PAGE in 0.5x TBE + 2.5% …"}
{"substance": "λPR-bgl template (linear pMK110 PCR fragment)", "values": [{"measurement": "K half", "value": 2, "unit": "nM"}]}
